The text below walks through data of patent US20180057596A1 (AstraZeneca / MedImmune, published 2018).

“And” between values parts separate entries of the source, which are not always exact repeats. Equal entries are not always repeated. Where two headings read alike, the source gives them in different places.

B1: human IL-4Rα HIS FLAG (in house HEK-EBNA derived) (receptor)
chain: MKVLQEPTCVSDYMSISTCEWKMNGPTNCSTELRLLYQLVFLLSEAHTCIPENNGGAGCVCHLLMDDVVSADNYTLDLWAGQQLLWKGSFKPSEHVKPRAPGNLTVHTNVSDTLLLTWSNPYPPDNYLYNHLTYAVNIWSENDPADFRIYNVTYLEPSLRIAASTLKSGISYRARVRAWAQCYNTTWSEWSPSTKWHNSYREPFNPAFLYKVVGAADYKDDDDKAAHHHHHHHHHH
modifications: biotinylated where used as the labelled partner in the DELFIA assay
notes: also called HuIL-4Rα; Human IL4-Rα/FLAG/HIS tag

In experiment [1] the target is T1, antibody tested in the epitope mapping of Example 5.
T1 construct: also called an antibody of the invention
Nature of the experiment: HTRF competition, test protein against biotinylated human IL-4Rα/Fc for cryptate labelled antibody. How it is done: (§1) Antibody was cryptate labelled with Eu³⁺ Cryptate labelling kit according to the manufacturer's instructions (CisBio International Cat No. 62EUSPEA) and IL-4R•/Fc (R&D systems Cat. No. 604-4R-050) was Biotin labelled with EZ Link NHS-Biotin according to the manufacturer's instructions (Perbio Cat No. 20217). […] 1% BSA, 0. 4M potassium fluoride in a total volume of 20 μl in a 384 well microtitre plate (Greiner). To the assay a dilution series (from 1000 nM to 0.017 nM) of test proteins was added and the assay incubated overnight at 4° C. FRET signal was detected using a PerkinElmer EnVision plate reader using a 320 nm excitation filter and 620 nm and 665 nm emission filters. Results were calculated from the 665/620 ratio as a percentage of specific binding (signal with no competitor antigen). Results were analysed with Prism (GraphPad Software) using the sigmoidal dose response model.
Antibody binding of chimeric molecules was tested in an HTRF (Homogeneous Time Resolved Fluorescence) competition assay. Molecules which bound antibody at the same paratope as human IL-4R• inhibited the binding interaction, leading to a reduction in signal. From inhibition curves IC₅₀ values for human IL-4R•, mouse IL-4R• and chimeric molecules were calculated (Table 5). […] Chimeras that gave similar IC₅₀ values to native human IL-4R• still contained the epitope.
For orientation: TR-FRET usually uses a lanthanide donor and a delayed reading to cut background.

The target in experiment [2] is T1, antibody tested in the epitope mapping …. The experiment is described as above. The method, then: as §1
The source holds these as a separate data set.

For experiment [3] the target is unchanged. Described as above. How it is done: as §1
This is another data set of the same source.

The target of experiment [4] is T2, human IL-4Rα on TF-1 cells (human, UniProt P24394 26-825).
T2 sequence (looked up): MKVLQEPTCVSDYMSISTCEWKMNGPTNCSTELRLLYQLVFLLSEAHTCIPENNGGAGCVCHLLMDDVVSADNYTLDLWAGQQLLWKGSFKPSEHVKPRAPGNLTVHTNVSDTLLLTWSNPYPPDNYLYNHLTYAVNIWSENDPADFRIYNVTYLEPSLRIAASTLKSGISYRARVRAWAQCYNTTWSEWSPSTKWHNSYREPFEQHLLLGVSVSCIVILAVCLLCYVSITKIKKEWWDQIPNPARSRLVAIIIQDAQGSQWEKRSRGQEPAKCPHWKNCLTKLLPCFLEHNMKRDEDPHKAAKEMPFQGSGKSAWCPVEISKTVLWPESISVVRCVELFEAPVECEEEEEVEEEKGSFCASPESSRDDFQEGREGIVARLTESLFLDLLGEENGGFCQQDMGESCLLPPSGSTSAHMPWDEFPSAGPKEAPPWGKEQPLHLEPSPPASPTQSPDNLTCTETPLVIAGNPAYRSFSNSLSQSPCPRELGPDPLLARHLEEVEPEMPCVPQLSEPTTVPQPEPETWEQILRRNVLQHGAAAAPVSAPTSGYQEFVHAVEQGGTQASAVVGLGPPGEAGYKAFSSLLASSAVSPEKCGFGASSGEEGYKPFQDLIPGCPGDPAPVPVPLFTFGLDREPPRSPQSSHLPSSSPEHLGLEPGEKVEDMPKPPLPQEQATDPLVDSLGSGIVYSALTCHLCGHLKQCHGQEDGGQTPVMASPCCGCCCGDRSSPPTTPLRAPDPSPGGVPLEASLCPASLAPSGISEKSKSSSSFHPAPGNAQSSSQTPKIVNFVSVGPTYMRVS
The experiment is described as follows: cell-based or functional assay.

Experiment [5] addresses B1. The experiment is described as follows: SPR (BIAcore 2000), IgG captured on Protein G', receptor as analyte, 1:1 Langmuir. The method, then: (§2) In brief, Protein G′ (Sigma Aldrich, P4689) was covalently coupled to the surface of a CM5 sensor chip using standard amine coupling reagents according to manufacturer's instructions (BIAcore). This Protein G′ surface was used to capture a constant amount of purified anti-IL4R• antibodies or isotype control via the Fc domain. Human or cynomolgus IL-4R• HIS FLAG prepared in HBS-EP buffer (BIAcore AB), at a range of concentrations, between 100 nM and 0.2 nM, were passed over the sensor chip surface. […] The resulting sensorgrams were evaluated using BIA evaluation 4.1 software and fitted to 1:1 Langmuir binding model, to provide the relative binding data. The experiments were performed over the course of at least three separate days to calculate an average monovalent affinity.

In experiment [6] the target is T3, cynomolgus IL-4Rα HIS FLAG (cynomolgus).
T3 construct: also called Cyno IL4Rα HIS FLAG; not shown: HIS and FLAG tags and any vector-encoded linker of the cynomolgus HIS FLAG construct
T3 chain: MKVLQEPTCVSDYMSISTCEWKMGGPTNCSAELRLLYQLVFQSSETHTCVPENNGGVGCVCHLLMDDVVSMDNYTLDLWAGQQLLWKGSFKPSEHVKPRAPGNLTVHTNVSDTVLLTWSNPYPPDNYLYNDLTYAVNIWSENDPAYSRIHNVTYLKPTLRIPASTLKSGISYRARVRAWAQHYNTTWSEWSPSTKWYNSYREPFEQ
Described as above. How it is done:
as §2

Experiment [7] deals with T2, human IL-4Rα on TF-1 cells. Nature of the experiment: cell-based or functional assay. The source holds these as a separate data set.
Experiment [8] concerns the target T2, human IL-4Rα on TF-1 cells. Nature of the experiment: cell-based or functional assay. This is another data set of the same source.
The target of experiment [9] is B1. Nature of the experiment: SPR (BIAcore 2000), value in parentheses under the mean, taken as a single determination; single determination, one of three separate days; the mean is 0.255 nM. How it is done:
as §2

For experiment [10], the target named is B1. The experiment is described as follows: SPR (BIAcore 2000), value in parentheses under the mean, taken as a single determination. The method, then:
as §2
For orientation: SPR reads the build-up and loss of mass on a sensor chip optically.

Experiment [11] concerns the target T3, cynomolgus IL-4Rα HIS FLAG. The description is as above. The method, then:
as §2

By IC50 is commonly meant the concentration needed to halve the response being measured. A higher IC50 goes with a need for much substance. B1: the concentration for half-maximal inhibition (IC50) in [1], in [2] and in [3] was 0.673 nM each time.

B2: Antibody 1 IgG (antibody, V domains shown)
VH: QVQLVQSGAEVKKPGASVKVSCKASGYAFTSYYMHWARQAPGQGLEWMGIINPSGGSTSYAQKFQGRVTMTRDTSTSTVYMELSSLRSEDTAVYYCARGKWWLDYWGKGTLVTVSS
VL: QSVLTQPPSVSAAPGQKVTISCSGGSSNIGNSYVSWYQQLPGTAPKLLIYDNNKRPSGIPDRFSGSKSGTSATLAITGLQTGDEADYYCGTWDTSLSANYVFGTGTKLTVL
Take B2: in [4], the “IC50 geomean, IL-4 induced TF-1 cell proliferation” value is 38 nM and the “IC50 geomean, IL-13 induced TF-1 cell proliferation” value worked out at 18 nM.

B3: Antibody 20 IgG (antibody, V domains shown)
VH: QVQLVQSGAEVKKPGASVKVSCKASGYAFTSYYMHWARQAPGQGLEWMGIINPSGGSTSYAQKFQGRVTMTRDTSTSTVYMELSSLRSEDTAVYYCARGKYWMYDWGKGTLVTVSS
VL: QSVLTQPPSVSAAPGQKVTISCSGGSSNIGNSYVSWYQQLPGTAPKLLIYDNNKRPSGIPDRFSGSKSGTSATLAITGLQTGDEADYYCGTWDTSTVWEWPFGTGTKLTVL
One may read the Kd as the free concentration of one partner at which half of the binding sites on the other are occupied at equilibrium, for simple one-to-one binding. As a reminder, the koff is a measure of how fast the partners let go of each other. Low values mean slow dissociation, high ones fast dissociation. In general, kon refers to the second-order rate constant of association. Higher therefore signals fast association. Regarding B3, in [5], the affinity, expressed as Kd, was 1.25 nM; the koff came to 0.000873 s⁻¹; the association rate constant (kon) came to 698000 M⁻¹ s⁻¹. In experiment [6], this molecule gave a dissociation constant (Kd) of 27.7 nM, a koff of 0.00452 s⁻¹ and a kon of 163000 M⁻¹ s⁻¹. In [7], the “IC50 (pM), IL-4 induced TF-1 cell proliferation” value was found to be 31.1 pM and the “IC50 (pM), IL-13 induced TF-1 cell proliferation” value amounted to 66.1 pM.

B4: Antibody 24 (PGL) IgG (antibody, V domains shown)
VH: QVQLVQSGAEVKKPGASVKVSCKASGYAFTSYYMHWVRQAPGQGLEWMGIINPRGGSTSYAQKFQGRVTMTRDTSTSTVYMELSSLRSEDTAVYYCARGKYWMYDWGKGTLVTVSS
VL: QSVLTQPPSVSAAPGQKVTISCSGGSSNIGNSYVSWYQQLPGTAPKLLIYDNNKRPSGIPDRFSGSKSGTSATLGITGLQTGDEADYFCGTWDTSTVWEWPFGTGTKLTVL
B4: in experiment [8], the “IC50 (pM), IL-4 induced TF-1 cell proliferation” value worked out at 15.3 pM and the “IC50 (pM), IL-13 induced TF-1 cell proliferation” value is 55 pM.

B5: Antibody 2 IgG (antibody, V domains shown)
VH: QVQLVQSGAEVKKPGASVKVSCKASGYAFTSYYMHWARQAPGQGLEWMGIINPSGGSTSYAQKFQGRVTMTRDTSTSTVYMELSSLRSEDTAVYYCARGKWWLYNWGKGTLVTVSS
VL: QSVLTQPPSVSAAPGQKVTISCSGGSSNIGNSYVSWYQQLPGTAPKLLIYDNNKRPSGIPDRFSGSKSGTSATLAITGLQTGDEADYYCGTWDTSQPPNPLFGTGTKLTVL
With B5, in experiment [5], binding was put at a Kd of 4.51 nM, the koff was 0.00294 s⁻¹ and the kon came out at 651000 M⁻¹ s⁻¹. In [6], the Kd was found to be 47.5 nM, the koff is 0.00459 s⁻¹ and the on-rate constant (kon) was 96700 M⁻¹ s⁻¹. In experiment [7], the “IC50 (pM), IL-4 induced TF-1 cell proliferation” value is 41.7 pM and the “IC50 (pM), IL-13 induced TF-1 cell proliferation” value came to 171 pM.

B6: Antibody 37 IgG (antibody, V domains shown)
VH: QVQLVQSGAEVKKPGASVKVSCKASGYAFTSYYMHWARQAPGQGLEWMGIINPRGGSTSYAQKFQGRVAMTRDTSTSTVYMELSSLRPEDTAVYYCARGKYWMYDWGKGTLVTVSS
VL: QSVLTQPPSVSAAPGQKVTISCSGGGSSIGNSYVSWYQQLPGTAPKLLIYDNNKRPSGVPDRFSGSKSGTSATLAITGLQTGDEADYYCGTWDTSPVWEWPFGTGTKLTVL
On to B6, for which the Kd is 0.255 nM in [5]; 2.97 nM in [6]; 0.313 nM in [9]; 0.25 nM and 0.203 nM in [10]; 2.59 nM and 2.36 nM and 3.96 nM in [11]. Also, the figures for the dissociation rate constant (koff) in experiment [5] and in experiment [6] were 0.000162 s⁻¹ and 0.000688 s⁻¹, respectively. For the same molecule, the kon in experiment [5] was 640000 M⁻¹ s⁻¹; in experiment [6], 243000 M⁻¹ s⁻¹. Further, in experiment [7], the “IC50 (pM), IL-4 induced TF-1 cell proliferation” value came out at 10.4 pM. For the same molecule, in [7], the “IC50 (pM), IL-13 induced TF-1 cell proliferation” value was 22.1 pM.

B7: Antibody 9 IgG (antibody, V domains shown)
VH: QVQLVQSGAEVKKPGASVKVSCKASGYAFTSYYMHWARQAPGQGLEWMGIINPSGGSTSYAQKFQGRVTMTRDTSTSTVYMELSSLRSEDTAVYYCARGKWWLYNWGKGTLVTVSS
VL: QSVLTQPPSVSAAPGQKVTISCSGGSSNIGNSYVSWYQQLPGTAPKLLIYDNNKRPSGIPDRFSGSKSGTSATLAITGLQTGDEADYYCGTWDTSTTMYPLFGTGTKLTVL
In experiment [5], B7 gave a Kd of 0.422 nM, an off-rate (koff) of 0.000229 s⁻¹ and a kon of 543000 M⁻¹ s⁻¹. In [6], this molecule had a Kd of 124 nM, a dissociation rate constant (koff) of 0.0163 s⁻¹ and a kon of 131000 M⁻¹ s⁻¹. Moreover, in experiment [7], the “IC50 (pM), IL-4 induced TF-1 cell proliferation” value worked out at 8.88 pM and the “IC50 (pM), IL-13 induced TF-1 cell proliferation” value amounted to 20.4 pM.
